Test results published in patent publication US20220396631A1 (Novartis, published 2022).
Residue numbers refer to the chain shown, from its start.

B1: Human CD2 (receptor)
chain: KEITNALETWGALGQDINLDIPSFQMSDDIDDIKWEKTSDKKKIAQFRKEKETFKEKDTYKLFKNGTLKIKHLKTDDQDIYKVSIYDTKGKNVLEKIFDLKIQERVSKPKISWTCINTTLTCEVMNGTDPELNLYQDGKHLKLSQRVITHKWTTSLSAKFKCTAGNKVSKESSVEPVSCPEKGLD
notes: also called recombinant human CD2; CD2 extracellular domain
B2: CD58_IgV (ligand)
chain: SQQIYGVVYGNVTFHVPSNVPLKEVLWKKQKDKVAELENSEFRAFSSFKNRVYLDTVSGSLTIYNLTSSDEDEYEMESPNITDTMKFFLYVLESGGGGSHHHHHHHH
notes: Recombinant, made in HEK293 cells; also called CD58 domain 1; IgV domain of CD58 (wild type)
B3: IgV V45C_M105C (ligand)
chain: B2 chain with V16C, M76C
notes: Disulfide-stabilised variant
B4: IgV V54C_G88C (ligand)
chain: B2 chain with V25C, G59C
notes: Disulfide-stabilised variant
B5: IgV V45C_M114C (ligand)
chain: B2 chain with V16C, M85C
notes: Disulfide-stabilised variant
B6: CD58 Full ECD (ligand)
chain: SQQIYGVVYGNVTFHVPSNVPLKEVLWKKQKDKVAELENSEFRAFSSFKNRVYLDTVSGSLTIYNLTSSDEDEYEMESPNITDTMKFFLYVLESLPSPTLTCALTNGSIEVQCMIPEHYNSHRGLIMYSWDCPMEQCKRNSTSIYFKMENDLPQKIQCTLSNPLFNTTSSIILTTCIPSSGHSRHRGGGGSHHHHHHHH
notes: Recombinant, made in HEK293 cells
B7: H3-13 (antibody, V domains shown)
VH: QVQLQESGGGVVQPGRSLRLSCAASGFTFSSYGMHWVRQAPGKGLEWVAVISYDDAHKYYADSVKGRFTISRDNSKNTLYLQMNSLRAEDTAVYYCGGSGYALHDQYKPVDVWGQGTLVTVSS
VL: QSALTQPASVSGSPGQSITISCTGTSSDVGGYNYVSWYQQHPGKAPKLMIYEVSNRLRGVSNRFSGSKFGNTASLTISGLQAEDEADYYCSSYTSSSTLYVFGSGTKVTVL
notes: AB3 family
B8: H2/L2-22 (antibody, V domains shown)
VH: QAQLQSSEGGVVQPGRSLRLSCAASGFTFSSYGMHWVRQAPGKGLEWVAVISYHGSNKYYADSVKGRFTISRDNSKNTLYLQMNSLRAEDTAVYYCGGSGYALHDDYYGLDVWGQGTLVTVSS
VL: B7 VL with R58S
notes: AB3 family
B9: H3-15 (antibody, V domains shown)
VH: QVQLQGSGGGVVQPGRSLRLSCAASGFTVSSYGMHWVRQAPGKGLEWVAVISYDDANKYYADSVKGRFTISRDSSKNTLYLQMNSLRAEDTAVYYCGGSGYAYDGDYYGLDVWGQGTLVTVSS
VL: B7 VL with R58G, T98A
notes: AB3 family
B10: H3-14 (antibody, V domains shown)
VH: B7 VH with E6G
VL: B7 VL with R58S, T98A
notes: AB3 family
B11: PI-61 (antibody, V domains shown)
VH: B8 VH with A2V, S6E, E8G, H54D
VL: B7 VL with E52D, L57P, R58S, F69S
notes: also called parental PI-61 antibody; P1-61

target: B6; experiment: isothermal titration calorimetry; 100 uM CD2 titrated into 10 uM CD58 variant in HBS
Description: (§1) To ensure the binding affinity remained uncompromised by the additional of the stabilizing disulfide variance, isothermal calorimetry (ITC) was performed on the resulting recombinant CD58 proteins to determine their apparent KD and binding stoicheometry (n) to recombinant human CD2.
(§2) Briefly, recombinant human CD2 and recombinant human CD58 variants were dialyzed into HEPES-buffered saline (HBS). CD2 was diluted to final concentration of 100 μM, CD58 variants were diluted to 10 μM. CD2 was titrated into 10 μM of CD58 variants via multiple injections and ΔH (kcal/mole) determined using a MicroCal VP-ITC isothermal titration calorimeter (Malvern). Titrations of CD2 into HBS were used as a reference and KD and n determined from the resulting data.

| Binder | Kd [nM] |
| --- | --- |
| B1 | 570 |

target: B1; experiment: as above
Description: as §1, §2

| Binder | Kd [nM] | n (binding stoichiometry) |
| --- | --- | --- |
| B2 | 610 | 0.96 |
| B3 | 880 | 0.97 |
| B4 | 600 | 0.83 |
| B5 | 380 | 0.88 |
| B6 |  | 0.92 |

target: T1, human BCMA (human, UniProt Q02223 1-54, limits assumed); experiment: affinity maturation of PI-61
T1 construct: also called B-cell maturation antigen; TNFRSF17
T1 sequence (looked up): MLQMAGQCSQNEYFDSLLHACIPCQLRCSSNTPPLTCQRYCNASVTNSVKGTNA

| Binder | binding result |
| --- | --- |
| B7 | binds |
| B8 | binds |
| B9 | binds |
| B10 | binds |

target: T1, human BCMA; experiment: phage display selection

| Binder | binding result |
| --- | --- |
| B11 | binds |
